Assay results: patent WO2009041734A1

Target: human thrombopoietin receptor (human c-Mpl) (human) (UniProt P40238)
Experiment: cell-based or functional assay

Substance: PEG-rHuMGDF (Pegylated Recombinant Human Megakaryocyte Growth and Development Factor) (ligand)
- UT7/TPO (Max): 100%
